Data: article PMC13022455, “Oligomerization-dependent and synergistic regulation of Cdc42 GTPase cycling by a GEF and a GAP” (EMBO Reports, 2026)
Numbering of substitutions follows the chain as printed. Numbers in names are those of the source.

T1: Cdc24 (S. cerevisiae) (UniProt P11433)
T1 sequence: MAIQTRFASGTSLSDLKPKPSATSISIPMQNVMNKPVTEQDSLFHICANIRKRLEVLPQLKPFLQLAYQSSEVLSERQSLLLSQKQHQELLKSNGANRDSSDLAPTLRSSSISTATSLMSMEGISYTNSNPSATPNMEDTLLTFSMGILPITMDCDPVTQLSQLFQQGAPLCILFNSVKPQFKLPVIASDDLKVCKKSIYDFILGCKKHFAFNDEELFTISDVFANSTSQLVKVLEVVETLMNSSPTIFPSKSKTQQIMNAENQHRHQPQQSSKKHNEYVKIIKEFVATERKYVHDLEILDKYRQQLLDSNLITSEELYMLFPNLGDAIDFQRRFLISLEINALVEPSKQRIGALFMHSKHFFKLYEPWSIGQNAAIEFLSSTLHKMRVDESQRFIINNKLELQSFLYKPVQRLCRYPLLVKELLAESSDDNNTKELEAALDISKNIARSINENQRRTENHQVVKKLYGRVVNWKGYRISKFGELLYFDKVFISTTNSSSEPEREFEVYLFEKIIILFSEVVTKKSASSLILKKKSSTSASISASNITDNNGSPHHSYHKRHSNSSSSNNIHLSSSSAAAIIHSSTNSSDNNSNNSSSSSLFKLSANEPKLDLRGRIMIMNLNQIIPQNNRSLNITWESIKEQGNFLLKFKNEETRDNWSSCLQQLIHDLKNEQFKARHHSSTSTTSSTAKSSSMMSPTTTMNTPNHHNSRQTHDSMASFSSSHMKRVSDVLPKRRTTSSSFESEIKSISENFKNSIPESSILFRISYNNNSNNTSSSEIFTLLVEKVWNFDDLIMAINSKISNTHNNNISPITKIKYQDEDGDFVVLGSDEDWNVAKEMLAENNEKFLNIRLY

B1: His-Rga2 (Rga2 tagged with an N-terminal 6His purification tag) (enzyme, S. cerevisiae, UniProt Q06407 1-1009, looked up)
chain: MSADPINDQSSLCVRCNKSIASSQVYELESKKWHDQCFTCYKCDKKLNADSDFLVLDIGTLICYDCSDKCTNCGDKIDDTAIILPSSNEAYCSNCFRCCRCSNRIKNLKYAKTKRGLCCMDCHEKLLRKKQLLLENQTKNSSKEDFPIKLPERSVKRPLSPTRINGKSDVSTNNTAISKNLVSSNEDQQLTPQVLVSQERDESSLNDNNDNDNSKDREETSSHARTVSIDDILNSTLEHDSNSIEEQSLVDNEDYINKMGEDVTYRLLKPQRANRDSIVVKDPRIPNSNSNANRFFSIYDKEETDKDDTDNKENEIIVNTPRNSTDKITSPLNSPMAVQMNEEVEPPHGLALTLSEATKENNKSSQGIQTSTSKSMNHVSPITRTDTVEMKTSTSSSTLRLSDNGSFSRPQTADNLLPHKKVAPSPNKKLSRSFSLKSKNFVHNLKSKTSEMLDPKHPHHSTSIQESDTHSGWGVSSTHTNIRKSKAKKNPVSRGQSDSTIYNTLPQHGNFTVPEFNHKKAQSSLGSISKKQNSNDTATNRRINGSFTSSSSGHHIAMFRTPPLESGPLFKRPSLSSESAHHRSSSLQTSRSTNALLEDDSTKVDATDESATSLEKDFYFTELTLRKLKLDVRELEGTKKKLLQDVENLRLAKERLLNDVDNLTREKDKQSASSRESLEQKENIATSITVKSPSSNSDRKGSISNASPKPRFWKIFSSAKDHQVGDLESQQRSPNSSSGGTTNIAQKEISSPKLIRVHDELPSPGKVPLSPSPKRLDYTPDGSHLYGSSLQARCAYEKSTVPIIIRCCIDRIEKDDIGLNMEGLYRKSGSQTLVEEIENEFAQNNSLHSDTLSPKLNALLNQDIHAVASVLKRYLRKLPDPVLSFSIYDALIDLVRNNQLIERLPLNNDKFLDSPQKVTIYEMVLKSLLEIFKILPVEHQEVLKVLAAHIGKVRRCSERNLMNLHNLSLVFAPSLIHDFDGEKDIVDMKERNYIVEFILGNYRDIFKQA
notes: plasmid pRV014; Found only as higher-order oligomers in SEC-MALS; also called Rga2(I); pRV014; source: E. coli BL21 DE3 pLysS, purified (HisTrap Excel, SEC Sephacryl S-300); not shown: His6, N-terminal, kept
B2: Cdc24-DH3 (incl. mutation L339A, E340A) (enzyme)
chain: T1 sequence with L339A, E340A
B3: GAP domain (aa 797–981 from Rga2) (domain or fragment, S. cerevisiae, UniProt Q06407 797-981, looked up)
chain: EKSTVPIIIRCCIDRIEKDDIGLNMEGLYRKSGSQTLVEEIENEFAQNNSLHSDTLSPKLNALLNQDIHAVASVLKRYLRKLPDPVLSFSIYDALIDLVRNNQLIERLPLNNDKFLDSPQKVTIYEMVLKSLLEIFKILPVEHQEVLKVLAAHIGKVRRCSERNLMNLHNLSLVFAPSLIHDFDG
notes: Rga2 GAP domain, S. cerevisiae, aa 797–981 (Smith et al, 2002); plasmid pRV138; also called Rga2's GAP domain; pRV138; source: E. coli BL21 DE3 pLysS, purified (HisTrap Excel, SEC Sephacryl S-300)

Experiments:
[1] = target: the molecule itself; assay: SEC-MALS; single purified proteins; Superdex 200 Increase 10/300 GL, SEC buffer (50 mM Tris-HCl pH 7.5, 100 mM NaCl, 10 mM MgCl2, 1 mM 2-mercaptoethanol) with 0.02% sodium azide, 0.5 mL/min; samples 5.7–7.1 µM; fractions analysed by SDS-PAGE and anti-His western blot
Cdc24 (S. cerevisiae) = target: T1, Cdc24 (S. cerevisiae)
[2] = target: Cdc24-DH3 (incl. mutation L339A, E340A) (S. cerevisiae) (UniProt P11433)

| Binder | binding result [1] | interaction (synergy) rate k3,X1,X2 of Cdc42 GTPase cycling in Cdc42–Cdc24–Rga2 ((II)) mixtures (GTPase-Glo assay) (Cdc24 (S. cerevisiae)) | interaction (synergy) rate k3,X1,X2 of Cdc42 GTPase cycling in Cdc42–Cdc24–Rga2(I) mixtures (GTPase-Glo assay) (Cdc24 (S. cerevisiae)) | rate k3,Cdc24-DH3 of Cdc42 GTPase cycling (GTPase-Glo assay) [2] |
| --- | --- | --- | --- | --- |
| B1 | binds | 51.7 µM^−4 h^−1 | 87 µM^−4 h^−1 |  |
| B2 |  |  |  | 0.702 µM^−2 h^−1 |
| B3 | binds |  |  |  |
